Publication PMC10393190 (Genes & Development, 2022)
Like-named read-outs stand apart in the source and are kept apart here.

How the values were obtained:
Rec114;Mei4 [1] = target: T1, Rec114;Mei4 (Saccharomyces cerevisiae;Saccharomyces …, UniProt P32841;P29467 1-428;1-408, |); test: competition
T1 sequence 1: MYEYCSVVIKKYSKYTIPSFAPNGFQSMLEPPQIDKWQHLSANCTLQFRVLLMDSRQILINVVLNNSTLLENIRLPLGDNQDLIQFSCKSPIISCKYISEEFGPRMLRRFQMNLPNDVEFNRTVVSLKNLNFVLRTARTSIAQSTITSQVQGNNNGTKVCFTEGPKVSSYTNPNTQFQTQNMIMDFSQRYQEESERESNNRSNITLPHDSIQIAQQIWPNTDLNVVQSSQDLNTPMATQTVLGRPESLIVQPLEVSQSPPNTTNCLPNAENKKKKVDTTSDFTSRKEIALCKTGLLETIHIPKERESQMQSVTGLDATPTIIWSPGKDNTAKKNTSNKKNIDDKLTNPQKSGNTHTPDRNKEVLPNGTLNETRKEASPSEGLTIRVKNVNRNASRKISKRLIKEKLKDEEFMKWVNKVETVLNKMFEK
T1 sequence 2: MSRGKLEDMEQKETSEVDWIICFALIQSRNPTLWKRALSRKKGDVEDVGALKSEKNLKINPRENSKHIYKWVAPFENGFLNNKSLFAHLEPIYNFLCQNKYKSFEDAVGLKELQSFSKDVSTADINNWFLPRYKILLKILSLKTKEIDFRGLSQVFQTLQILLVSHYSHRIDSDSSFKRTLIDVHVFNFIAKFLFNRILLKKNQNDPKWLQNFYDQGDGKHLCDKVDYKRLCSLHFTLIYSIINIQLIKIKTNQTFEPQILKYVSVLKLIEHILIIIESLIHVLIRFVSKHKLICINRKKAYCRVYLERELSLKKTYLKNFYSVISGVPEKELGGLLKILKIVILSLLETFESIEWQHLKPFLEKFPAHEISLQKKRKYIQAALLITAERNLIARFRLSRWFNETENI

Rec15 coiled-coil domain = target: T2, Rec15 coiled-coil domain (Schizosaccharomyces pombe, UniProt Q09094 1-160); test: competition
T2 sequence: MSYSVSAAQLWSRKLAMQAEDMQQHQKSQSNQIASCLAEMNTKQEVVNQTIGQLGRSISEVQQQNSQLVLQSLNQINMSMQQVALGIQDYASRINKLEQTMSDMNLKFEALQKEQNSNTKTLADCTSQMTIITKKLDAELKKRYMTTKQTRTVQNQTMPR

IHO1 coiled-coil domain = target: T3, IHO1 coiled-coil domain (Mus musculus, UniProt Q6PDM4 109-267); test: competition
T3 sequence: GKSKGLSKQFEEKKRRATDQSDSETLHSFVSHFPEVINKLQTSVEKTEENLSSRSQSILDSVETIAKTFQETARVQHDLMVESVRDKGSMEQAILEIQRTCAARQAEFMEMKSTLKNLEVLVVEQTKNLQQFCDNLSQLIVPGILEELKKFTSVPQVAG

Mer2 [2] = target: T4, Mer2 (Saccharomyces cerevisiae, UniProt P21651 1-314); test: EMSA
T4 sequence: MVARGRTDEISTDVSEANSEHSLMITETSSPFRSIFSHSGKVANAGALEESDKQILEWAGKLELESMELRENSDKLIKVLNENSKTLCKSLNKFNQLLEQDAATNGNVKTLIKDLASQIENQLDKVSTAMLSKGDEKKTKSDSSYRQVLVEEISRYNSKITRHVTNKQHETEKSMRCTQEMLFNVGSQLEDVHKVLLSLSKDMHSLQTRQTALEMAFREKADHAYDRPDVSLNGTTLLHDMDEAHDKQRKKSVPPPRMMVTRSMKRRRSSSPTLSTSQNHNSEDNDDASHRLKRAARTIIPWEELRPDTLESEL

REC114;MEI4 [3] = target: T5, REC114;MEI4 (Mus musculus;Mus musculus, UniProt Q9CWH4;Q8BRM6 1-259;1-389, |); test: competition
T5 sequence 1: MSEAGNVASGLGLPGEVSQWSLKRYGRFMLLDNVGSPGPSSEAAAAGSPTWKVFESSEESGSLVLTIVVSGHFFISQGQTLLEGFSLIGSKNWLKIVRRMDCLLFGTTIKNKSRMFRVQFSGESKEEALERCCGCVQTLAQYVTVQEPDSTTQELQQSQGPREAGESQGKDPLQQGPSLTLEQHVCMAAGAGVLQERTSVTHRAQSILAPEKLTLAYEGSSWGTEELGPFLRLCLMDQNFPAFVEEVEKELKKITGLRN
T5 sequence 2: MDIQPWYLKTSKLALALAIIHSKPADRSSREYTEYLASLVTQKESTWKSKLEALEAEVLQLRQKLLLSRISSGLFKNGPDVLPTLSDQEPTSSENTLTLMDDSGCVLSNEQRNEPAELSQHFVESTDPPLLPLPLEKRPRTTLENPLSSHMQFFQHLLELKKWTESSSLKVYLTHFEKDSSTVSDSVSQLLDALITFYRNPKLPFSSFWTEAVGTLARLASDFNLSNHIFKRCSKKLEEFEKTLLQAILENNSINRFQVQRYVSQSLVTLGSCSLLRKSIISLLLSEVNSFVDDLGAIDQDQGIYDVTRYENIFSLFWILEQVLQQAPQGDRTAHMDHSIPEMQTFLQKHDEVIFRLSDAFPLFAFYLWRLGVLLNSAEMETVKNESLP

Mer2 [4] = target: T4, Mer2; test: EMSA; remark: listed apart in the source
Mer2 [5] = target: T4, Mer2; test: EMSA; remark: listed apart in the source
Mer2 [6] = target: T4, Mer2; test: EMSA; remark: listed apart in the source
Mer2 [7] = target: T4, Mer2; test: EMSA; remark: listed apart in the source

B1: HJ40 (cb095/cb096/cb097/cb098) (structured_DNA)
DNA 1: CTAGTATAGAGCCGGCGCGCCATGTCTAGATAGCGTTAGGTCTGCCGAATAGTACTACTCGGATCCCGAGCGAACCACGC
DNA 2: GCGTGGTTCGCTCGGGATCCGAGTAGTACTATTCGGCAGAGGATTCGAATAGGCCTAATCGAATTCCGCCATCGATGCAC
DNA 3: GTGCATCGATGGCGGAATTCGATTAGGCCTATTCGAATCCAGACGCGAGTAGATCTTCACGGTACCCGCGGTTACCCGTG
DNA 4: CACGGGTAACCGCGGGTACCGTGAAGATCTACTCGCGTCTCCTAACGCTATCTAGACATGGCGCGCCGGCTCTATACTAG
With B1 the binding signal (Rec114;Mei4 [1]) was ~10 fold better competitor than dsDNA, the binding result (Rec15 coiled-coil domain) was “binds” and the binding result (IHO1 coiled-coil domain) was “binds”. For the same binder, the “apparent K (half saturation)” value (Mer2 [2]) was 9.2 ± 1 nM and the binding signal (REC114;MEI4 [3]) was > 20 fold higher affinity than dsDNA.

B2: dsDNA 80 bp (cb095/cb100) (dsDNA)
DNA 1: B1 DNA 1
DNA 2: GCGTGGTTCGCTCGGGATCCGAGTAGTACTATTCGGCAGACCTAACGCTATCTAGACATGGCGCGCCGGCTCTATACTAG
With B2 the “apparent K (half saturation)” value (Mer2 [4]) was 36.8 ± 13.3 nM.

B3: Fork (cb095/cb098/cb122/cb120) (structured_DNA)
DNA 1: B1 DNA 1
DNA 2: B1 DNA 4
DNA 3: AGACGCGAGTAGATCTTCACGGTACCCGCGGTTACCCGTG
DNA 4: GCGTGGTTCGCTCGGGATCCGAGTAGTACTATTCGGCAGA
For B3, the “apparent K (half saturation)” value (Mer2 [5]) was 24.4 ± 5.5 nM.

B4: 3' flaps (cb095/cb098/cb122) (structured_DNA)
DNA 1: B1 DNA 1
DNA 2: B1 DNA 4
DNA 3: B3 DNA 3
With B4 the “apparent K (half saturation)” value (Mer2 [6]) was 34.4 ± 25.2 nM.

B5: HJ20 (cb922/cb923/cb924/cb925) (structured_DNA)
DNA 1: CAACGTGGGCAAAGATGTCCTAGCAATGTAATCGTCTATG
DNA 2: ATTCTACCAGTGCCAGTGATGGACATCTTTGCCCACGTTG
DNA 3: ATCCTCTAGACAGCTCCATGATCACTGGCACTGGTAGAAT
DNA 4: CATAGACGATTACATTGCTACATGGAGCTGTCTAGAGGAT
For B5, the “apparent K (half saturation)” value (Mer2 [7]) was 23.9 ± 2.9 nM.
